Laboratory results reported in patent publication US20230212305A1 (published 2023).
Where a chain is given by its changes, count along the chain named.

T1: cynomolgus ABCG2 (Macaca fascicularis) (Macaca fascicularis (cynomolgus), UniProt Q5MB13 1-654 (rhesus entry))
T1 construct: also called cABCG2
T1 sequence: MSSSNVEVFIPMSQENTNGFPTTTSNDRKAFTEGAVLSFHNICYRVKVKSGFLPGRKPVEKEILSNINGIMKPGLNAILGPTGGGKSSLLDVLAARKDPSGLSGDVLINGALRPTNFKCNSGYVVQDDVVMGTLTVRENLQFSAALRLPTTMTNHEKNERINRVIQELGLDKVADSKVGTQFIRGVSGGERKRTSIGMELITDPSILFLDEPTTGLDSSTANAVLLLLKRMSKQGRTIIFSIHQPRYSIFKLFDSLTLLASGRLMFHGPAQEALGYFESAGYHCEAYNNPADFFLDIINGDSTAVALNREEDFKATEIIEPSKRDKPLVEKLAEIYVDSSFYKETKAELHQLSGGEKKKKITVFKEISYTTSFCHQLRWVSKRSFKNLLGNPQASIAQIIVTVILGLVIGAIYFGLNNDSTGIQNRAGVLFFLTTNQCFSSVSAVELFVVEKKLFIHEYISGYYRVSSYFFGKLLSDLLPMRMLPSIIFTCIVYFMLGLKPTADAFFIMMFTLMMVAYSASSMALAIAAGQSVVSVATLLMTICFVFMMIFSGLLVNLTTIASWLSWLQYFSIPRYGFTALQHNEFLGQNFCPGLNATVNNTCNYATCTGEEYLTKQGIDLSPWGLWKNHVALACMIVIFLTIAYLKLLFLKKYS

T2: human ABCG2 (human, UniProt Q9UNQ0 1-655)
T2 construct: also called hG2; KPG2
T2 sequence: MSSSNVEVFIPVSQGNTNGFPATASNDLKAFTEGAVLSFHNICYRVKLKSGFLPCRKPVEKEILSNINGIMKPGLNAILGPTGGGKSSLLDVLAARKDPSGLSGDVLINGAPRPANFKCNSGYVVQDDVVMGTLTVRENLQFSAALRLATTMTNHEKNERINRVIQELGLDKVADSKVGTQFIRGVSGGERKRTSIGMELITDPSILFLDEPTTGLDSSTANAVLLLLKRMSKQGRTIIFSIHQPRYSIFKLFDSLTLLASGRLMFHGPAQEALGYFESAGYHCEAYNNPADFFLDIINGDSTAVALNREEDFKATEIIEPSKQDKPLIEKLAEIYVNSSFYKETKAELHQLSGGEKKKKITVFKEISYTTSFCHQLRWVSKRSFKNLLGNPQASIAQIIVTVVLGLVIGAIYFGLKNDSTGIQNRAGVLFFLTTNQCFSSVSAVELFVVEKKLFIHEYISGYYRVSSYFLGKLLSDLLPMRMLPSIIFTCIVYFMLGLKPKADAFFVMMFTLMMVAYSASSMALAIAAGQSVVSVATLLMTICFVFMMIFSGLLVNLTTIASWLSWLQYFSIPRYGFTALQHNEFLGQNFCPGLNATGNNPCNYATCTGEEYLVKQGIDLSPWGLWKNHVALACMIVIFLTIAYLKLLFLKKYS

B1: G2.629 rat (antibody, human IgG1, V domains shown)
VH: EVQLVESGGGLVQPGRSLKLSCAASGFIFSRFYMAWVRQAPTKGLEWVAYINTGGGTTYYRDSVKGRFTISRDNAKTTLYLQMDSLRSEDTATYYCTTLAAPWNYVMDAWGQGASVTVSS
VL: DVVMTQSPSLLSASVGDRVTLTCKGSQNINNFLAWYQQKLGEAPKLLTYKTNSLHTGIPSRFSGSGSGTDYTLTISSLHSEDLATYYCYQYNNGYTFGPGTKLELK
notes: Variable regions cloned onto human IgG1 constant heavy chain and human kappa constant light chain
B2: G2.636 rat (antibody, human IgG1, V domains shown)
VH: EVKLVESGGGLVQPGRSLKLSCAASGFTFSRFYMAWVRQAPTKGLEWVAHISHGGDTTYYRDSVKGRFTISRDNAKSTLFLQMDSLRSEDTATYYCTTSAAPWNYVMDGWGLGASVTVSS
VL: B1 VL with V2I, T48I, P99A
notes: as for B1
B3: G2.641 rat (antibody, human IgG1, V domains shown)
VH: B2 VH with V5E
VL: B1 VL with V2I, V3Q, T48I, P99A
notes: as for B1
B4: G2.247 mouse (antibody, human IgG1, V domains shown)
VH: EVRLQQSGAELVKPGASVKLSCKTSGFTFSNSYISWLKQKPRQSLEWIAWIYAGTGGTNYNQKFTGKAQLTVDTSSSTAYMQLSSLTSEDSAIYYCATYGNFLYAMDNWGQGTSVTVSS
VL: DIVMTQSPASLSASVGETVTITCRASGNIHNYLAWYQQKQGKSPQLLVYNTKTLADGVPSRFSGSGSGTQYSLKINSLQPEDFGSYYCQHFWSTPWTFGGGTKLEIK
notes: as for B1
B5: G2.252 mouse (antibody, human IgG1, V domains shown)
VH: B4 VH with R3Q, N108Y, S114T, V115L
VL: B4 VL with D1E, M4L, T51A
notes: as for B1
B6: G2.248 mouse (antibody, human IgG1, V domains shown)
VH: B4 VH with E1Q, R3Q, S7P
VL: B4 VL with V3Q, T5K
notes: as for B1
B7: G2.255 mouse (antibody, human IgG1, V domains shown)
VH: EVMLVESGGALVKPGGSLKLSCAASGFTFSNNAMSWVRQTPETRLEWVATITGGGSYTYYPDSVKGRFTISRDNARNTLYLQMSSLRSEDTATYYCASPDGNYEGVLAYWGQGTLVTVSA
VL: DIQMNQSPSSLSASLGDRVTISCSASQGISNYLNWYQQKPDGTIKLLIYYTSTLHSGVPSRFSGSGSGTDYSLTISNLEPEDIATYYCQHYSSLPWTFGGGTKLEIK
notes: as for B1
B8: G2.631 rat (antibody, human IgG1, V domains shown)
VH: EVKLLESGGGLVQSGRSLKLSCAASGFIFSRFYMAWVRQAPRKGLEWVAYISNGAGSTYYRESVKGRFIISRDNAKSTLYLQMDSLRSEDTATYYCTTVAAPWNYVMDGWGQGASVTVSS
VL: B1 VL with D1N, V2I, V3Q, M4I, T22S, F32Y, T48I, P99A
notes: also called G.631
B9: anti-ABCG2 antibody 5D3 (antibody, V domains shown)
VH: QVQLQESGPGLVKPSQSLSLTCTVTGFSITSDYAWNWIRQFPGKKLEWMGYINFDGGTTYNPSLRGRISITRDTSKNQFFLQLRSVTPEDTATYYCATFYGAKGTLDYWGQGTSVTVSS
VL: DIVLTQSPSSFSVSLGDRVTISCKASGYILNRLAWYQQKPGNAPRLLISGATSLETGFPSRFSGTGSGKDYTLSISSLQTEDVGTYYCQQYWSTPWTFGGGTKLEIK
notes: also called clone 5D3

target: T1, cynomolgus ABCG2 (Macaca fascicularis); test: flow cytometry on cells expressing cynomolgus ABCG2
Experimental: (§1) Cell Binding Assays. Antibody binding to cells was evaluated by flow cytometry. […] After incubating cells on ice for 30 min, cells were washed twice with flow cytometry buffer. Bound antibody was detected with PE-labeled F(ab′)₂ fragment goat anti-human IgG (Jackson ImmunoResearch) and evaluated on an Attune NxT flow cytometer.

Q: Does B1 bind?
A: binds

Q: Does B2 bind?
A: binds

Q: Does B3 bind?
A: binds

target: T1, cynomolgus ABCG2 (Macaca fascicularis); test: flow cytometry on cells expressing cynomolgus ABCG2; paragraph 395: non-significant binding = -
Experimental: as §1

Q: Does B4 bind?
A: no binding

Q: Does B5 bind?
A: no binding

Q: Does B6 bind?
A: no binding

Q: Does B7 bind?
A: no binding

target: T2, human ABCG2; test: flow cytometry titration on 293T_ABCG2_OX cells; column Affinity for human ABCG2 (nM)
Experimental: as §1

Q: With B4 as the binder, how does the Kd read?
A: 59 nM

Q: How did the Kd turn out when B5 was run?
A: 347 nM

Q: How did the Kd turn out when B6 was run?
A: 125 nM

Q: For B7, which Kd is on record?
A: 363 nM

Q: B1 was tested. Which Kd did it give?
A: 16.8 nM

Q: B2 was tested. Which Kd did it give?
A: 17 nM

Q: B8 was tested. Which Kd did it give?
A: 14.2 nM

Q: With B3 as the binder, how does the Kd read?
A: 23 nM

Q: B9 was tested. Which Kd did it give?
A: 5 nM

target: T2, human ABCG2; test: cell-based or functional assay

Q: How did the “IC50 of topotecan cytotoxicity in the presence of the antibody” value (from here on “IC50 of topotecan cytotoxicity”) turn out when B1 was run?
A: 2.21 nM

Q: For B2, which “IC50 of topotecan cytotoxicity” value is on record?
A: 0.45 nM

Q: Which “IC50 of topotecan cytotoxicity” value does the source give for B8 here?
A: 1.42 nM

Q: With B3 as the binder, how does the “IC50 of topotecan cytotoxicity” value read?
A: 1.04 nM

Q: B9 was tested. Which “IC50 of topotecan cytotoxicity” value did it give?
A: 0.3 nM
